In the supplement of paper PMC10126150:
± gives the standard deviation of the averaged measurements.

Tested on: ATP
Assay: switch fluorescence ratio, 500 uM ATP over buffer (Cy3 cluster intensity, sum of 5 cycles each) (fold (ratio)); higher = stronger signal-on switching upon ATP binding; sequences stand for … in TCGTCGGCAGCGTCAGATGTGTATAAGAGACAGTTTTTTTTTTTTTTTTTTTTTTTTT…TC
Conditions: aptamer strand: ATP DNA aptamer (quencher-CACCTGGGGGAGTATTGCGGAGGAAGG + anchor), 100 nM annealed; ATP concentration: 500 uM
How it was run: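 Exposure to 500 uM ATP lasted 15 min at 22 °C before imaging, and a selection-buffer image was taken beforehand, for Cy3-labelled switching-strand clusters on a modified Illumina MiSeq flow-cell annealed to 100 nM quencher-labelled ATP aptamer. Five buffer/ATP cycles were run with NaOH stripping and re-annealing between them. The fluorescence ratio per cluster is summed target-cycle over summed buffer-cycle Cy3 intensity, averaged per switch-domain sequence. Clusters outside 100-1000 RFU were excluded.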

With CGTAGTAGGA the switch fluorescence ratio was 1.04 ± 0.084.

For CGTAGTGCCC, the switch fluorescence ratio was 1.07 ± 0.048.

In the case of CGTAGTTTGC, the switch fluorescence ratio is reported as 1.52 ± 0.098.

In the case of CGTATAATGT, the switch fluorescence ratio is reported as 0.996 ± 0.015.

CGTATAGAGA gave a switch fluorescence ratio of 0.998 ± 0.039.

In the case of CGTATAGTAG, the switch fluorescence ratio is reported as 0.958 ± 0.02.

CGTATATTAG gave a switch fluorescence ratio of 0.96 ± 0.014.

In the case of CGTATCAATT, the switch fluorescence ratio is reported as 1.003 ± 0.004.

CGTATCGTGA was tested, and the switch fluorescence ratio was 1.01 ± 0.041.

CGTATGACTA showed a switch fluorescence ratio of 0.984 ± 0.05.

In the case of CGTATGGGGA, the switch fluorescence ratio is reported as 1 ± 0.023.

With CGTATTATGG the switch fluorescence ratio was 0.998 ± 0.05.

Work on CGTATTCTGA yielded a switch fluorescence ratio of 0.966 ± 0.064.

In the case of CGTATTGCCA, the switch fluorescence ratio is reported as 1 ± 0.025.

CGTATTTAGT showed a switch fluorescence ratio of 0.98 ± 0.035.

CGTATTTGGA showed a switch fluorescence ratio of 0.985 ± 0.046.

Work on CGTATTTTAG yielded a switch fluorescence ratio of 1 ± 0.029.

CGTCAATTTA was tested, and the switch fluorescence ratio was 1.12 ± 0.12.

CGTCACTAAT was tested, and the switch fluorescence ratio was 1.21 ± 0.25.

CGTCAGAGCG gave a switch fluorescence ratio of 0.9802 ± 0.008.

CGTCAGTGCA gave a switch fluorescence ratio of 1.01 ± 0.024.

CGTCGACGGG was tested, and the switch fluorescence ratio was 1.02 ± 0.054.

CGTCGGAGGC showed a switch fluorescence ratio of 0.986 ± 0.019.

In the case of CGTCGGCAAA, the switch fluorescence ratio is reported as 3.42 ± 0.21.

With CGTCGTAGGG the switch fluorescence ratio was 0.985 ± 0.03.

Sequence CGTCTGTGGG has a switch fluorescence ratio of 0.9844 ± 0.0041.

For CGTGAACATA, the switch fluorescence ratio was 1.02 ± 0.034.

CGTGAATTGT showed a switch fluorescence ratio of 1.044 ± 0.01.

CGTGACATTG gave a switch fluorescence ratio of 1.01 ± 0.013.

CGTGAGATTA gave a switch fluorescence ratio of 0.9846 ± 0.0009.

Sequence CGTGAGCTAA has a switch fluorescence ratio of 1.41 ± 0.19.

CGTGATAAGT was tested, and the switch fluorescence ratio was 1.02 ± 0.021.

CGTGATCAGC showed a switch fluorescence ratio of 1.017 ± 0.0098.

Work on CGTGCATGAG yielded a switch fluorescence ratio of 1.01 ± 0.02.

With CGTGCCCAGC the switch fluorescence ratio was 1.01 ± 0.025.

In the case of CGTGCGGATG, the switch fluorescence ratio is reported as 1.02 ± 0.0057.

With CGTGCGGGGG the switch fluorescence ratio was 1.01 ± 0.035.

Sequence CGTGCTAGAA has a switch fluorescence ratio of 1.0154 ± 0.001.

CGTGCTAGTC was tested, and the switch fluorescence ratio was 1.04 ± 0.055.

CGTGCTCAGA gave a switch fluorescence ratio of 0.996 ± 0.025.

In the case of CGTGCTGGAC, the switch fluorescence ratio is reported as 1.091 ± 0.0065.

For CGTGGAGGGG, the switch fluorescence ratio was 1.04 ± 0.013.

For CGTGGAGTCG, the switch fluorescence ratio was 0.989 ± 0.1.

Work on CGTGGATAGT yielded a switch fluorescence ratio of 0.955 ± 0.03.

In the case of CGTGGCCTGT, the switch fluorescence ratio is reported as 0.994 ± 0.029.

With CGTGGCGGAT the switch fluorescence ratio was 0.9709 ± 0.0092.

Work on CGTGGCGGTT yielded a switch fluorescence ratio of 1.09 ± 0.13.

CGTGGGATAA was tested, and the switch fluorescence ratio was 1.01 ± 0.023.

For CGTGGGCGGT, the switch fluorescence ratio was 0.9807 ± 0.0031.

CGTGGGGAGC gave a switch fluorescence ratio of 1.06 ± 0.11.

CGTGGGGCGG gave a switch fluorescence ratio of 0.999 ± 0.016.

Sequence CGTGGGGGGC has a switch fluorescence ratio of 1.01 ± 0.02.

For CGTGGGGGTC, the switch fluorescence ratio was 1.01 ± 0.013.

Work on CGTGGGGGTT yielded a switch fluorescence ratio of 0.973 ± 0.038.

In the case of CGTGGGGTCA, the switch fluorescence ratio is reported as 0.982 ± 0.024.

For CGTGGTAGGG, the switch fluorescence ratio was 0.992 ± 0.035.

Sequence CGTGGTGCGA has a switch fluorescence ratio of 1.02 ± 0.015.

For CGTGGTTTGC, the switch fluorescence ratio was 1.03 ± 0.053.

In the case of CGTGTATTGG, the switch fluorescence ratio is reported as 0.987 ± 0.013.

Work on CGTGTATTTC yielded a switch fluorescence ratio of 1.02 ± 0.022.

With CGTGTCACTT the switch fluorescence ratio was 1.01 ± 0.023.

With CGTGTGGGTT the switch fluorescence ratio was 0.993 ± 0.011.

For CGTGTGTGGT, the switch fluorescence ratio was 0.994 ± 0.024.

For CGTGTGTTGA, the switch fluorescence ratio was 1.01 ± 0.013.

Work on CGTGTTGGAC yielded a switch fluorescence ratio of 1.016 ± 0.0032.

CGTGTTGGAG gave a switch fluorescence ratio of 0.969 ± 0.011.

With CGTGTTTCGG the switch fluorescence ratio was 0.97715 ± 0.00018.

CGTGTTTTCC gave a switch fluorescence ratio of 1.022 ± 0.0015.

CGTGTTTTCT showed a switch fluorescence ratio of 0.99 ± 0.031.

For CGTTAAAATA, the switch fluorescence ratio was 1.01 ± 0.062.

Sequence CGTTACTCCG has a switch fluorescence ratio of 1.5 ± 0.16.

With CGTTAGTAAA the switch fluorescence ratio was 0.9862 ± 0.0035.

For CGTTATACAG, the switch fluorescence ratio was 1.01 ± 0.026.

CGTTATATTC showed a switch fluorescence ratio of 1.08 ± 0.031.

With CGTTCAGCT the switch fluorescence ratio was 1.01 ± 0.035.

CGTTCAGTTC showed a switch fluorescence ratio of 0.972 ± 0.053.

CGTTCAGTTT showed a switch fluorescence ratio of 0.9929 ± 0.0028.

Sequence CGTTCATTGT has a switch fluorescence ratio of 0.9942 ± 0.0098.

Sequence CGTTCGGAGG has a switch fluorescence ratio of 0.991 ± 0.037.

CGTTCGTTCG gave a switch fluorescence ratio of 0.989 ± 0.015.

For CGTTGACGCG, the switch fluorescence ratio was 1.02 ± 0.016.

With CGTTGAGATC the switch fluorescence ratio was 1.06 ± 0.059.

For CGTTGAGGAC, the switch fluorescence ratio was 1.024 ± 0.0053.

For CGTTGAGTCG, the switch fluorescence ratio was 0.992 ± 0.06.

In the case of CGTTGATGTG, the switch fluorescence ratio is reported as 0.99 ± 0.045.

Sequence CGTTGGAGCG has a switch fluorescence ratio of 1 ± 0.03.

CGTTGGGCTC showed a switch fluorescence ratio of 1.019 ± 0.0051.

CGTTGGGGGT gave a switch fluorescence ratio of 0.978 ± 0.022.

CGTTGGTGGC showed a switch fluorescence ratio of 0.9457 ± 0.0066.

CGTTGGTGTG showed a switch fluorescence ratio of 1 ± 0.028.

With CGTTGTATGG the switch fluorescence ratio was 1.01 ± 0.046.

With CGTTGTATTA the switch fluorescence ratio was 0.996 ± 0.051.

Work on CGTTGTGAGG yielded a switch fluorescence ratio of 1.03 ± 0.038.

With CGTTGTTACA the switch fluorescence ratio was 1.04 ± 0.018.

CGTTGTTAGT gave a switch fluorescence ratio of 1.037 ± 0.0083.

With CGTTGTTATG the switch fluorescence ratio was 0.9852 ± 0.0067.

CGTTGTTTGG showed a switch fluorescence ratio of 0.966 ± 0.058.

CGTTTAACTC gave a switch fluorescence ratio of 1.05 ± 0.055.

Sequence CGTTTACTCT has a switch fluorescence ratio of 1.055 ± 0.0043.

CGTTTACTTT showed a switch fluorescence ratio of 0.984 ± 0.059.
